Assays:
[1] = biological target: SARS-CoV 假病毒 S蛋白 (SARS-CoV, UniProt P59594 14-1255); test: cell-based or functional assay
[2] = biological target: SARS-CoV-2 Prototype(PT)假病毒 S蛋白 (SARS-CoV-2 (Prototype), UniProt P0DTC2 14-1273); test: cell-based or functional assay
[3] = biological target: RaTG13 假病毒 S蛋白 (sarbecovirus RaTG13); test: cell-based or functional assay
[4] = biological target: WIV1 假病毒 S蛋白 (sarbecovirus WIV1); test: cell-based or functional assay
[5] = biological target: GD/1/2019 假病毒 S蛋白 (sarbecovirus GD/1/2019); test: cell-based or functional assay
[6] = biological target: SARS-CoV RBD蛋白 (SARS-CoV, UniProt P59594 306-527); test: SPR, Biacore 8K; 74 captured on protein A chip, RBD as analyte
[7] = biological target: T1, SARS-CoV-2 Prototype株(PT)RBD蛋白 (SARS-CoV-2 (Prototype), UniProt P0DTC2 319-541); test: as above
T1 construct: domain: RBD

B1: 沙贝病毒广谱人源中和抗体74 (antibody, V domains shown)
VH: QVQLVQSGAQLKKPGESLKISCKGSGYNFSRYWIAWVRHMPGKGLEVMGIIYPDDSDTRYSPSVRGQVTISADKSTSIVYLQWSSLKASDTGIYYCARFGAGMTGMPRYFDTTRWFDPWGQGTQVTVSS
VL: QSVLTQPPSVSGAPGQRVTISCLGGSSNIGAGYDVHWYQHLPGAAPKLLISGNSNRPSGVPARFSGSKSGTSASLAITGLQAEDEADYYCQSYDNDLSQVFGGGTKLTVLG
Q: How did the “IC50, 假病毒中和” value [1] turn out when B1 was run?
A: 0.041 µg/mL

Q: What about the “IC50, 假病毒中和” value [2] of the same binder?
A: 0.95 µg/mL

Q: And the “IC50, 假病毒中和” value [3]?
A: > 100 µg/mL

Q: What about the “IC50, 假病毒中和” value [4] of the same binder?
A: 0.14 µg/mL

Q: What about the “IC50, 假病毒中和” value [5] of the same binder?
A: 0.0028 µg/mL

Q: And the Kd [6]?
A: < 0.00606 nM

Q: And the koff [6]?
A: 6.47e-06 s⁻¹

Q: What about the kon [6] of the same binder?
A: 1.65e+06 M⁻¹ s⁻¹

Q: What about the Kd [7] of the same binder?
A: < 0.0156 nM

Q: What about the koff [7] of the same binder?
A: 9.52e-08 s⁻¹

Q: And the kon [7]?
A: 640000 M⁻¹ s⁻¹
